Results taken from patent publication EP3088890B1 (Chugai Seiyaku Kabushiki Kaisha, dated 2020).

Legend:
[1] = molecular target: GPC3 core (sGPC3-His) protein (human) (UniProt P51654); assay: competition ELISA on plate-bound sGPC3; unlabeled GT114 (100-fold) against competitor biotin-labeled GT607; signal of the labeled antibody
[2] = molecular target: GPC3 core (sGPC3-His) protein (human) (UniProt P51654); assay: ELISA on plate-bound sGPC3; biotin-labeled GT607, no unlabeled antibody
[3] = molecular target: GPC3 core (sGPC3-His) protein (human) (UniProt P51654); assay: competition ELISA on plate-bound sGPC3; unlabeled GT607 (100-fold) against competitor biotin-labeled GT30
[4] = molecular target: GPC3 core (sGPC3-His) protein (human) (UniProt P51654); assay: competition ELISA on plate-bound sGPC3; unlabeled GT607 (100-fold) against competitor biotin-labeled GT607; signal of the labeled antibody
[5] = molecular target: GPC3 core (sGPC3-His) protein (human) (UniProt P51654); assay: ELISA on plate-bound sGPC3; biotin-labeled GT165, no unlabeled antibody

Sequence of GPC3 core (sGPC3-His) protein (human) (P51654 25-563 S495A/S509A): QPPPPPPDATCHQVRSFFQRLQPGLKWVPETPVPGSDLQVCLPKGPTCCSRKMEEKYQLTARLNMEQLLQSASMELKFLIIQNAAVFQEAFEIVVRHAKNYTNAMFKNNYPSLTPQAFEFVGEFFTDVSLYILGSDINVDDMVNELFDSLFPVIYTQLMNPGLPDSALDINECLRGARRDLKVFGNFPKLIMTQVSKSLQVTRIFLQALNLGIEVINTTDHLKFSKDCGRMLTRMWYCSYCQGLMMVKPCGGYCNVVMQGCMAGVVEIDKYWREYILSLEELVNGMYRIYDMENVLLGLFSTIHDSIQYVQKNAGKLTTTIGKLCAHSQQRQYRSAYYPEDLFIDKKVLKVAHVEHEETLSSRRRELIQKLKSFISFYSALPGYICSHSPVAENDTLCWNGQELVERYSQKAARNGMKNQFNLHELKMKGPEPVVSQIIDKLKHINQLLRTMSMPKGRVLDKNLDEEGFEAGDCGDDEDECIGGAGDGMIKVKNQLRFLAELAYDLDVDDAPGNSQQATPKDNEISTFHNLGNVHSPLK

B1: GT114 antibody (antibody, IgG1, V domains shown)
VH: DVQLQESGPGLVKPSQSLSLTCTVTGYSITSDSAWNWIRQFPGNKLEWMAYIMYSGITSYNPSLKSRISITRDTAKNQFFLQLNSVTTEDSATYYCSRGYWYFDVWGAGTTVTVSS
VL: QIVLTQSPAIMSASLGEEITLTCSASSSVSYMHWYQQKSGTSPKLLIYSTSILASGVPSRFSGSGSGTFYSLTISSVEAEDAADYYCLQWITYRTFGGGTKLEIKR
- O.D. 450 [1]: 0.307 O.D. 450

B2: GT607 antibody (antibody, IgG1, V domains shown)
VH: EVQLVESGGDVVRPGGSLKLSCAASGFTFSSYGMSWVRQLPDKRLEWVASVGNGGSYRYYPENLKGRFTISRDNTKNTLYLQISGLKSEDTAIYYCARRGAFPYFDVWGAGTTVTVSS
VL: QIVLTQSPAIMSASPGEKVTLACSASSSVTYMHWYQQKSGTSPKRWIYETSKLASGVPPRFSGSGSGTSYSLTISTMEAEDAATYYCQQWSSNPLTFGAGTKLELKR
- O.D. 450 [2]: 2.18 O.D. 450
- Inhibitory effect (%) [3]: < 0%
- O.D. 450 [4]: 0.135 O.D. 450

B3: GT165 antibody (antibody, IgG1, V domains shown)
VH: QVQLQQSGAELVGPGASVKISCKAFGYTFTNHHINWVKQRPGQGLDWIGYINPYNDYTNYNQKFKGKATLTVDKSSSTAYMELSSLTSEDSAVYYCARSDPAWFAYWGQGTLVTVSA
VL: DIQMTQSPSSLSASLGGKVTITCKASQDINKNIAWYQHKPGKGPRLLIWYTYTLQPGIPSRFSGSGSGRDYSFSISNLEPEDIATYYCLQYDNLPFTFGTGTKLEIKR
- O.D. 450 [5]: 1.68 O.D. 450
